Assay results from article PMC11161652, “ASXLs binding to the PHD2/3 fingers of MLL4 provides a mechanism for the recruitment of BAP1 to active enhancers” (Nature Communications, 2024).

B1: PHD2 and PHD3 fingers of human MLL4 (aa 227-324) [human] / ASXL2 peptide (residues 650-670 of ASXL2) [human] (parent complex)
chain 1: ARCAVCEGPGELCDLFFCTSCGHHYHGACLDTALTARKRAGWQCPECKVCQACRKPGNDSKMLVCETCDKGYHTFCLKPPMEELPAHSWKCKACRVCR
chain 2: NRTGARTLADIKAKAQLVKAQ

Variants of: B1
Test: fluorescence spectroscopy

Variant	Kd [µM]
chain 2 R6I	11

Variants of: B1
Test: fluorescence spectroscopy
Remark: another data set of the same source

Variant	Kd [µM]
chain 1 E66K	10
